Source: patent US20100130424A1 (Janssen / Centocor, published 2010)
No end group written: not given here. *: point of attachment. Succinimide(1-Et,3-yl) = CCN1C(=O)CC(*)C1=O

B1: Cys-variant of stresscopin peptide with N-Ethylsuccinimide (NES) reactive group, SEQ ID NO: 49 (peptide)
peptide: TKFTLSLDVPTNIMNLLFNIAKAKC(Succinimide(1-Et,3-yl))LRAQAAANAHLMAQI-NH2
modifications: N-terminus assumed
SMILES: CC[C@H](C)[C@H](NC(=O)[C@H](CCC(N)=O)NC(=O)[C@H](C)NC(=O)[C@H](CCSC)NC(=O)[C@H](CC(C)C)NC(=O)[C@H](Cc1c[nH]cn1)NC(=O)[C@H](C)NC(=O)[C@H](CC(N)=O)NC(=O)[C@H](C)NC(=O)[C@H](C)NC(=O)[C@H](C)NC(=O)[C@H](CCC(N)=O)NC(=O)[C@H](C)NC(=O)[C@H](CCCNC(=N)N)NC(=O)[C@H](CC(C)C)NC(=O)[C@H](CSC1CC(=O)N(CC)C1=O)NC(=O)[C@H](CCCCN)NC(=O)[C@H](C)NC(=O)[C@H](CCCCN)NC(=O)[C@H](C)NC(=O)[C@@H](NC(=O)[C@H](CC(N)=O)NC(=O)[C@H](Cc1ccccc1)NC(=O)[C@H](CC(C)C)NC(=O)[C@H](CC(C)C)NC(=O)[C@H](CC(N)=O)NC(=O)[C@H](CCSC)NC(=O)[C@@H](NC(=O)[C@H](CC(N)=O)NC(=O)[C@@H](NC(=O)[C@@H]1CCCN1C(=O)[C@@H](NC(=O)[C@H](CC(=O)O)NC(=O)[C@H](CC(C)C)NC(=O)[C@H](CO)NC(=O)[C@H](CC(C)C)NC(=O)[C@@H](NC(=O)[C@H](Cc1ccccc1)NC(=O)[C@H](CCCCN)NC(=O)[C@@H](N)[C@@H](C)O)[C@@H](C)O)C(C)C)[C@@H](C)O)[C@@H](C)CC)[C@@H](C)CC)C(N)=O
B2: Cys-variant of stresscopin peptide with N-Ethylsuccinimide (NES) reactive group, SEQ ID NO: 50 (peptide)
peptide: TKFTLSLDVPTNIMNLLFNIAKAC(Succinimide(1-Et,3-yl))NLRAQAAANAHLMAQI-NH2
modifications: N-terminus assumed
SMILES: CC[C@H](C)[C@H](NC(=O)[C@H](CCC(N)=O)NC(=O)[C@H](C)NC(=O)[C@H](CCSC)NC(=O)[C@H](CC(C)C)NC(=O)[C@H](Cc1c[nH]cn1)NC(=O)[C@H](C)NC(=O)[C@H](CC(N)=O)NC(=O)[C@H](C)NC(=O)[C@H](C)NC(=O)[C@H](C)NC(=O)[C@H](CCC(N)=O)NC(=O)[C@H](C)NC(=O)[C@H](CCCNC(=N)N)NC(=O)[C@H](CC(C)C)NC(=O)[C@H](CC(N)=O)NC(=O)[C@H](CSC1CC(=O)N(CC)C1=O)NC(=O)[C@H](C)NC(=O)[C@H](CCCCN)NC(=O)[C@H](C)NC(=O)[C@@H](NC(=O)[C@H](CC(N)=O)NC(=O)[C@H](Cc1ccccc1)NC(=O)[C@H](CC(C)C)NC(=O)[C@H](CC(C)C)NC(=O)[C@H](CC(N)=O)NC(=O)[C@H](CCSC)NC(=O)[C@@H](NC(=O)[C@H](CC(N)=O)NC(=O)[C@@H](NC(=O)[C@@H]1CCCN1C(=O)[C@@H](NC(=O)[C@H](CC(=O)O)NC(=O)[C@H](CC(C)C)NC(=O)[C@H](CO)NC(=O)[C@H](CC(C)C)NC(=O)[C@@H](NC(=O)[C@H](Cc1ccccc1)NC(=O)[C@H](CCCCN)NC(=O)[C@@H](N)[C@@H](C)O)[C@@H](C)O)C(C)C)[C@@H](C)O)[C@@H](C)CC)[C@@H](C)CC)C(N)=O
B3: Pegylated Cys-variant CRHR2 peptide agonist (NES-PEG MW30000), SEQ ID NO: 99 (peptide)
peptide: TKFTLSLDVPTNIMNLLFNIAKAKNLRCQAAANAHLMAQI
modifications: NES-PEG MW30000 on Cys 28; C-terminal amide
B4: Pegylated Cys-variant CRHR2 peptide agonist (NES-PEG MW40000), SEQ ID NO: 100 (peptide)
peptide: B3 peptide
modifications: NES-PEG MW40000 on Cys 28; C-terminal amide
B5: Pegylated Cys-variant CRHR2 peptide agonist (NES-PEG MW80000 & BRANCHED), SEQ ID NO: 101 (peptide)
peptide: B3 peptide
modifications: NES-PEG MW80000, branched, on Cys 28; C-terminal amide
B6: Cys-variant of stresscopin peptide with N-Ethylsuccinimide (NES) reactive group, SEQ ID NO: 48 (peptide)
peptide: TKFTLSLDVPTNIMNLLFNIAKAKNC(Succinimide(1-Et,3-yl))RAQAAANAHLMAQI-NH2
modifications: N-terminus assumed
SMILES: CC[C@H](C)[C@H](NC(=O)[C@H](CCC(N)=O)NC(=O)[C@H](C)NC(=O)[C@H](CCSC)NC(=O)[C@H](CC(C)C)NC(=O)[C@H](Cc1c[nH]cn1)NC(=O)[C@H](C)NC(=O)[C@H](CC(N)=O)NC(=O)[C@H](C)NC(=O)[C@H](C)NC(=O)[C@H](C)NC(=O)[C@H](CCC(N)=O)NC(=O)[C@H](C)NC(=O)[C@H](CCCNC(=N)N)NC(=O)[C@H](CSC1CC(=O)N(CC)C1=O)NC(=O)[C@H](CC(N)=O)NC(=O)[C@H](CCCCN)NC(=O)[C@H](C)NC(=O)[C@H](CCCCN)NC(=O)[C@H](C)NC(=O)[C@@H](NC(=O)[C@H](CC(N)=O)NC(=O)[C@H](Cc1ccccc1)NC(=O)[C@H](CC(C)C)NC(=O)[C@H](CC(C)C)NC(=O)[C@H](CC(N)=O)NC(=O)[C@H](CCSC)NC(=O)[C@@H](NC(=O)[C@H](CC(N)=O)NC(=O)[C@@H](NC(=O)[C@@H]1CCCN1C(=O)[C@@H](NC(=O)[C@H](CC(=O)O)NC(=O)[C@H](CC(C)C)NC(=O)[C@H](CO)NC(=O)[C@H](CC(C)C)NC(=O)[C@@H](NC(=O)[C@H](Cc1ccccc1)NC(=O)[C@H](CCCCN)NC(=O)[C@@H](N)[C@@H](C)O)[C@@H](C)O)C(C)C)[C@@H](C)O)[C@@H](C)CC)[C@@H](C)CC)C(N)=O
B7: Cys-variant of stresscopin peptide with N-Ethylsuccinimide (NES) reactive group, SEQ ID NO: 45 (peptide)
peptide: TKFTLSLDVPTNIMNLLFNIAKAKNLRAQAAC(Succinimide(1-Et,3-yl))NAHLMAQI-NH2
modifications: N-terminus assumed
SMILES: CC[C@H](C)[C@H](NC(=O)[C@H](CCC(N)=O)NC(=O)[C@H](C)NC(=O)[C@H](CCSC)NC(=O)[C@H](CC(C)C)NC(=O)[C@H](Cc1c[nH]cn1)NC(=O)[C@H](C)NC(=O)[C@H](CC(N)=O)NC(=O)[C@H](CSC1CC(=O)N(CC)C1=O)NC(=O)[C@H](C)NC(=O)[C@H](C)NC(=O)[C@H](CCC(N)=O)NC(=O)[C@H](C)NC(=O)[C@H](CCCNC(=N)N)NC(=O)[C@H](CC(C)C)NC(=O)[C@H](CC(N)=O)NC(=O)[C@H](CCCCN)NC(=O)[C@H](C)NC(=O)[C@H](CCCCN)NC(=O)[C@H](C)NC(=O)[C@@H](NC(=O)[C@H](CC(N)=O)NC(=O)[C@H](Cc1ccccc1)NC(=O)[C@H](CC(C)C)NC(=O)[C@H](CC(C)C)NC(=O)[C@H](CC(N)=O)NC(=O)[C@H](CCSC)NC(=O)[C@@H](NC(=O)[C@H](CC(N)=O)NC(=O)[C@@H](NC(=O)[C@@H]1CCCN1C(=O)[C@@H](NC(=O)[C@H](CC(=O)O)NC(=O)[C@H](CC(C)C)NC(=O)[C@H](CO)NC(=O)[C@H](CC(C)C)NC(=O)[C@@H](NC(=O)[C@H](Cc1ccccc1)NC(=O)[C@H](CCCCN)NC(=O)[C@@H](N)[C@@H](C)O)[C@@H](C)O)C(C)C)[C@@H](C)O)[C@@H](C)CC)[C@@H](C)CC)C(N)=O
B8: Cys-variant of stresscopin peptide with N-Ethylsuccinimide (NES) reactive group, SEQ ID NO: 47 (peptide)
peptide: TKFTLSLDVPTNIMNLLFNIAKAKNLRC(Succinimide(1-Et,3-yl))QAAANAHLMAQI-NH2
modifications: N-terminus assumed
SMILES: CC[C@H](C)[C@H](NC(=O)[C@H](CCC(N)=O)NC(=O)[C@H](C)NC(=O)[C@H](CCSC)NC(=O)[C@H](CC(C)C)NC(=O)[C@H](Cc1c[nH]cn1)NC(=O)[C@H](C)NC(=O)[C@H](CC(N)=O)NC(=O)[C@H](C)NC(=O)[C@H](C)NC(=O)[C@H](C)NC(=O)[C@H](CCC(N)=O)NC(=O)[C@H](CSC1CC(=O)N(CC)C1=O)NC(=O)[C@H](CCCNC(=N)N)NC(=O)[C@H](CC(C)C)NC(=O)[C@H](CC(N)=O)NC(=O)[C@H](CCCCN)NC(=O)[C@H](C)NC(=O)[C@H](CCCCN)NC(=O)[C@H](C)NC(=O)[C@@H](NC(=O)[C@H](CC(N)=O)NC(=O)[C@H](Cc1ccccc1)NC(=O)[C@H](CC(C)C)NC(=O)[C@H](CC(C)C)NC(=O)[C@H](CC(N)=O)NC(=O)[C@H](CCSC)NC(=O)[C@@H](NC(=O)[C@H](CC(N)=O)NC(=O)[C@@H](NC(=O)[C@@H]1CCCN1C(=O)[C@@H](NC(=O)[C@H](CC(=O)O)NC(=O)[C@H](CC(C)C)NC(=O)[C@H](CO)NC(=O)[C@H](CC(C)C)NC(=O)[C@@H](NC(=O)[C@H](Cc1ccccc1)NC(=O)[C@H](CCCCN)NC(=O)[C@@H](N)[C@@H](C)O)[C@@H](C)O)C(C)C)[C@@H](C)O)[C@@H](C)CC)[C@@H](C)CC)C(N)=O
B9: Cys-variant of stresscopin peptide with N-Ethylsuccinimide (NES) reactive group, SEQ ID NO: 46 (peptide)
peptide: TKFTLSLDVPTNIMNLLFNIAKAKNLRAQAC(Succinimide(1-Et,3-yl))ANAHLMAQI-NH2
modifications: N-terminus assumed
SMILES: CC[C@H](C)[C@H](NC(=O)[C@H](CCC(N)=O)NC(=O)[C@H](C)NC(=O)[C@H](CCSC)NC(=O)[C@H](CC(C)C)NC(=O)[C@H](Cc1c[nH]cn1)NC(=O)[C@H](C)NC(=O)[C@H](CC(N)=O)NC(=O)[C@H](C)NC(=O)[C@H](CSC1CC(=O)N(CC)C1=O)NC(=O)[C@H](C)NC(=O)[C@H](CCC(N)=O)NC(=O)[C@H](C)NC(=O)[C@H](CCCNC(=N)N)NC(=O)[C@H](CC(C)C)NC(=O)[C@H](CC(N)=O)NC(=O)[C@H](CCCCN)NC(=O)[C@H](C)NC(=O)[C@H](CCCCN)NC(=O)[C@H](C)NC(=O)[C@@H](NC(=O)[C@H](CC(N)=O)NC(=O)[C@H](Cc1ccccc1)NC(=O)[C@H](CC(C)C)NC(=O)[C@H](CC(C)C)NC(=O)[C@H](CC(N)=O)NC(=O)[C@H](CCSC)NC(=O)[C@@H](NC(=O)[C@H](CC(N)=O)NC(=O)[C@@H](NC(=O)[C@@H]1CCCN1C(=O)[C@@H](NC(=O)[C@H](CC(=O)O)NC(=O)[C@H](CC(C)C)NC(=O)[C@H](CO)NC(=O)[C@H](CC(C)C)NC(=O)[C@@H](NC(=O)[C@H](Cc1ccccc1)NC(=O)[C@H](CCCCN)NC(=O)[C@@H](N)[C@@H](C)O)[C@@H](C)O)C(C)C)[C@@H](C)O)[C@@H](C)CC)[C@@H](C)CC)C(N)=O

These binders were tested against T1, human CRH receptor type 2 (human, UniProt Q13324 1-411) (assay: cell-based or functional assay).
T1 sequence (looked up): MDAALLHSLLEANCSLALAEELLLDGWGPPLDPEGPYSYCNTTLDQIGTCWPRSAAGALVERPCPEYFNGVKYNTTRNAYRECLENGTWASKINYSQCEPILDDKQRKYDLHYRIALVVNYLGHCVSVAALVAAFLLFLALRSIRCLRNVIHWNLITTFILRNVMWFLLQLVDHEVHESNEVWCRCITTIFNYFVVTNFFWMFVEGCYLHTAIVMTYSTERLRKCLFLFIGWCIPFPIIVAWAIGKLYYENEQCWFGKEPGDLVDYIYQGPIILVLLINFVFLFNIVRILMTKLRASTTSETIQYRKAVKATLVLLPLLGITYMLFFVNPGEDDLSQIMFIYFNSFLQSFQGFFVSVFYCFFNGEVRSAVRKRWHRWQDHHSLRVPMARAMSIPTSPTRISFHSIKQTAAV
B1 was tested, and the “Log DR against h-SCP, cAMP” value was 0.11 log10 ratio and the “pA50, cAMP” value was 9.36 -log M. B2 was tested, and the “Log DR against h-SCP, cAMP” value was -0.01 log10 ratio and the “pA50, cAMP” value was 9.48 -log M. In the case of B3, the “Log DR against h-SCP, cAMP” value is reported as 0.8 log10 ratio and the “pA50, cAMP” value is reported as 8.94 -log M. With B4 the “Log DR against h-SCP, cAMP” value was 1.1 log10 ratio and the “pA50, cAMP” value was 8.64 -log M. In the case of B5, the “Log DR against h-SCP, cAMP” value is reported as 1.9 log10 ratio and the “pA50, cAMP” value is reported as 7.84 -log M. In the case of B6, the “Log DR against h-SCP, cAMP” value is reported as 0.03 log10 ratio and the “pA50, cAMP” value is reported as 9.44 -log M. In the case of B7, the “Log DR against h-SCP, cAMP” value is reported as -0.01 log10 ratio and the “pA50, cAMP” value is reported as 9.48 -log M. In the case of B8, the “Log DR against h-SCP, cAMP” value is reported as -0.03 log10 ratio and the “pA50, cAMP” value is reported as 9.5 -log M. B9 was tested, and the “Log DR against h-SCP, cAMP” value was 0.04 log10 ratio and the “pA50, cAMP” value was 9.43 -log M.
